To fix the notation:
B1: Apoptosis-associated speck-like protein containing a CARD, residues 114 to 194; numbered along this chain, Q9ULZ3 (parent)
chain: FIDQHRAALIARVTNVEWLLDALYGKVLTDEQYQAVRAEPTNPSKMRKLFSFTPAWNWTCKDLLLQALRESQSYLVEDLER

± gives the uncertainty stated by the source.

In the series the parent is B1. Description: abundance fitness (aPCA) (normalised: wild type 0, dead -1); higher = more abundant; growth selection in yeast, the domain comes from the species named. The conditions noted are these: Homo sapiens.
For the variant G25P, the abundance fitness came to 0.191 ± 0.053. Consider G25R, for which the abundance fitness is -0.445 ± 0.049. Turning to R69M, the abundance fitness is -0.505 ± 0.13.

In the case of R69Q, the abundance fitness was -0.716 ± 0.16.

Take R69V: the abundance fitness is -0.378 ± 0.073. The value for R69Y was -0.62 ± 0.09; that for D78G was -0.228 ± 0.058. The value for D78V was -0.45 ± 0.083; that for D78Q was -0.137 ± 0.06. In the case of D78N, the abundance fitness is -0.291 ± 0.098. The figure for R37P is -0.792 ± 0.13; for R37G it is -0.479 ± 0.052. The value for R37H was -0.252 ± 0.1; that for R37C was -0.208 ± 0.088; that for I2W was -0.619 ± 0.43.

As for W56V, the abundance fitness was -0.694 ± 0.097. The figure for W56K is -0.684 ± 0.22; for W56H it is -0.371 ± 0.26. The figure for W56Y is -1.01 ± 0.38. The figure for W56G is -0.838 ± 0.097. Turning to W56L, the abundance fitness is -0.568 ± 0.061. The figure for W56D is -0.626 ± 0.32; for A22Y it is -0.004 ± 0.13; for A22D it is -0.302 ± 0.21. The value for A22Q was 0.063 ± 0.062; that for A22N was -0.08 ± 0.16; that for A22K was 0.331 ± 0.081. The figure for A22M is -0.183 ± 0.069; for E39S it is -0.842 ± 0.11.

With E39T, the abundance fitness is -0.789 ± 0.17. The figure for L75C is -0.839 ± 0.28; for L75M it is -0.647 ± 0.23; for L75D it is -0.819 ± 0.28. For L75A, the abundance fitness was -0.671 ± 0.092.

For L75E, the abundance fitness is -0.561 ± 0.14. The value for D62Y was -0.644 ± 0.19; that for D62P was -0.768 ± 0.11; that for L79D was -0.508 ± 0.23. The value for L79E was -0.774 ± 0.18. As for L79K, the abundance fitness is -0.857 ± 0.2.

Turning to T14H, the abundance fitness was -0.644 ± 0.22.

For T14S, the abundance fitness is -0.045 ± 0.052. The figure for T14K is -0.295 ± 0.17; for T29S it is -0.208 ± 0.35. The value for R12M was -0.628 ± 0.11. In the case of R12S, the abundance fitness is -0.462 ± 0.085.

Turning to R12D, the abundance fitness was -0.666 ± 0.26. The value for R12Q was -0.152 ± 0.091; that for S51A was -0.422 ± 0.063. The figure for S51P is -0.796 ± 0.06; for S51Q it is -0.205 ± 0.08. The value for A7P was -0.437 ± 0.09; that for A7Y was -0.54 ± 0.36.

Regarding A7L, the abundance fitness was -0.461 ± 0.068. The figure for A7I is -0.638 ± 0.3. The value for L65W was -0.172 ± 0.066; that for L65C was -0.248 ± 0.088; that for L65E was -0.142 ± 0.1. The value for L65P was -0.939 ± 0.23; that for L65G was -0.611 ± 0.052. In the case of Q72C, the abundance fitness is -0.272 ± 0.072. As to Q72L, the abundance fitness is -0.633 ± 0.077.

Consider Q72G, for which the abundance fitness is -0.627 ± 0.066. Consider Q72H, for which the abundance fitness was determined as 0.009 ± 0.096.

On to Q72V, for which the abundance fitness is -0.574 ± 0.071. E80Y: the abundance fitness was -0.532 ± 0.15. The value for E80V was -0.409 ± 0.067. Take E77A: the abundance fitness was -0.209 ± 0.069. The value for E77M was -0.244 ± 0.14; that for E77T was -0.63 ± 0.19; that for E77W was -0.399 ± 0.092. The figure for E77Q is -0.124 ± 0.057. The value for E77I was -0.479 ± 0.18; that for T53M was 0.015 ± 0.079; that for T53H was -0.394 ± 0.16. On to T53D, for which the abundance fitness was -0.855 ± 0.21. The value for Y74S was 0.219 ± 0.053.

Y74P: the abundance fitness is -0.081 ± 0.065. The figure for Y74T is 0.138 ± 0.07; for Y74G it is 0.151 ± 0.048; for Y74Q it is 0.265 ± 0.062.

Y74I: the abundance fitness was -0.1 ± 0.12. With R47N, the abundance fitness is -0.214 ± 0.17. In the case of R47Q, the abundance fitness was -0.051 ± 0.072. R47K: the abundance fitness is -0.008 ± 0.087. The value for R47A was 0.013 ± 0.055. The value for R47M was -0.166 ± 0.083. Turning to R47C, the abundance fitness was -0.139 ± 0.079. The value for R47T was -0.04 ± 0.076; that for W58V was 0.174 ± 0.054; that for W58G was 0.205 ± 0.037. The figure for W58A is 0.357 ± 0.063; for W58Q it is 0.174 ± 0.058; for W58H it is 0.289 ± 0.12. W58M: the abundance fitness came to 0.167 ± 0.075.

For the variant W58Y, the abundance fitness was found to be 0.203 ± 0.21. With W58E, the abundance fitness was determined as 0.376 ± 0.07. The figure for V27E is -0.731 ± 0.18; for V27D it is -0.904 ± 0.14; for V27K it is -1.09 ± 0.3. The figure for V27G is -0.419 ± 0.048; for V27Q it is -0.613 ± 0.15; for V27M it is -0.722 ± 0.18. The figure for A8Q is -0.078 ± 0.063. Take A8N: the abundance fitness is -0.558 ± 0.39.

Consider A8Y, for which the abundance fitness was -0.193 ± 0.12. The value for A8M was -0.372 ± 0.12; that for A8G was -0.577 ± 0.059. Regarding A8F, the abundance fitness was -0.673 ± 0.18.

Regarding A8C, the abundance fitness is -0.312 ± 0.097. On to P54H, for which the abundance fitness is -0.196 ± 0.16.

Consider P54I, for which the abundance fitness is -0.189 ± 0.13. In the case of P54W, the abundance fitness was -0.084 ± 0.068. On to P54Y, for which the abundance fitness was -0.166 ± 0.21. For P54A, the abundance fitness was determined as 0.045 ± 0.052.

Turning to Q34M, the abundance fitness is -0.329 ± 0.097. The figure for Q34N is -0.004 ± 0.12. The value for Q34R was -0.003 ± 0.052; that for Q34D was -0.185 ± 0.21; that for Q34Y was -0.332 ± 0.21.

For the variant V76L, the abundance fitness was -0.27 ± 0.072. The value for V76A was -0.698 ± 0.08; that for V76Y was -0.538 ± 0.21; that for L63S was -0.61 ± 0.099. On to L63D, for which the abundance fitness was -0.777 ± 0.14. With L63V, the abundance fitness is -0.232 ± 0.055.

Regarding L63E, the abundance fitness was -0.31 ± 0.1. The figure for L63A is -0.185 ± 0.053. Regarding L63T, the abundance fitness is -0.325 ± 0.076. The figure for T41V is -0.707 ± 0.087.

On to T41N, for which the abundance fitness turned out to be 0.045 ± 0.1. The figure for L19D is -0.395 ± 0.097. The value for L19I was -0.122 ± 0.12; that for L19N was -0.704 ± 0.46. Take L19K: the abundance fitness is -0.922 ± 0.36.

In the case of L19G, the abundance fitness was -0.827 ± 0.081. The figure for L19T is -0.912 ± 0.17.

With Q32A, the abundance fitness was -0.911 ± 0.1. Take Q32P: the abundance fitness was -0.941 ± 0.16. The value for Q32T was -0.507 ± 0.12; that for Q32R was -0.917 ± 0.11.

Consider Q32E, for which the abundance fitness was -0.276 ± 0.11.

On to C60V, for which the abundance fitness is -0.461 ± 0.059. The value for C60R was -0.265 ± 0.047; that for C60W was -0.238 ± 0.071. The value for C60Q was 0.329 ± 0.068; that for C60L was -0.456 ± 0.059; that for E17V was -0.985 ± 0.12. With E17F, the abundance fitness is -0.97 ± 0.5. In the case of E17T, the abundance fitness is -0.267 ± 0.066. The value for D30G was -0.545 ± 0.052; that for D30T was -0.193 ± 0.13. D30I: the abundance fitness is -0.309 ± 0.14. Consider D30Y, for which the abundance fitness is -0.293 ± 0.11. Regarding D30W, the abundance fitness is -0.26 ± 0.074. On to D30C, for which the abundance fitness is -0.539 ± 0.13.

With V16L, the abundance fitness was -0.484 ± 0.078. Turning to V16D, the abundance fitness was -0.773 ± 0.11. V16G: the abundance fitness was -0.88 ± 0.087. The value for V16Y was -1.02 ± 0.42. The value for L20I was -0.179 ± 0.094; that for L20G was -0.901 ± 0.093. The value for L20N was -0.797 ± 0.33; that for L20F was -0.621 ± 0.23; that for K45V was -0.609 ± 0.073. For K45G, the abundance fitness was -0.768 ± 0.072.

With K45A, the abundance fitness is -0.615 ± 0.083.

The values are drawn from the Human Domainome abundance scans (Beltran et al. 2025).
